The conditions of this data set: Oryctolagus cuniculus; pH 6; Thermal; DSC; KH2PO4-KOH 10 mM; reversible: no.

Chain of Glyceraldehyde-3-phosphate dehydrogenase wild type, P46406 (P46406 whole entry): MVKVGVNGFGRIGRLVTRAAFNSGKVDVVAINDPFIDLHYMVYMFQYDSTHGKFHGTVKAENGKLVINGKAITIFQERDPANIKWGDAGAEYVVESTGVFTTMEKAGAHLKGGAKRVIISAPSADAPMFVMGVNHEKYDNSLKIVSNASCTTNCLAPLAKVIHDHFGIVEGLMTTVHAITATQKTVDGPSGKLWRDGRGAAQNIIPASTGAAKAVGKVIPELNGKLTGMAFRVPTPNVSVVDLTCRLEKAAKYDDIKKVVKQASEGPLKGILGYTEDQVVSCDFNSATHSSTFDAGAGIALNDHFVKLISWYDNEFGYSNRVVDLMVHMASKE

Broadly, the Tm is the temperature at which the thermal transition is half complete. Turning to “Glyceraldehyde-3-phosphate dehydrogenase wild type, P46406”, the Tm is 68.9 °C and the “unfolding enthalpy (calorimetric)” value stood at 2900 kJ/mol.
